Experimental data from paper doi:10.1101/2024.09.05.611430 (bioRxiv, 2024).
Several values for one entry are separate records, joined by “and”; a condition that tells them apart may be missing. Equal values may be shown once.

Molecular target: the molecule itself
Assay: cryo-EM structure

B1: Mpn444 (Mycoplasma pneumoniae lipoprotein, recombinant, without the N-terminal signal sequence, aa 28-1325) (natural protein, UniProt P75334 28-1325, looked up)
chain: CAQPTASTVEGLFKPSSAFADRTDFSLSSILQKSLINRESFNQYLAMRLAPVLRTFYEDNYDTDIKERLNGFTADTDNAFVSQEQNLRNQFRENYLVHLQTDIFDNTGGNQAAWKLRDVNNKIIDDFISRIFAKNFVEYVQDGVGPLTKPTKSLIENTSNFKNIKLQPKFVNKNAKLKINNDAVYAAIQDKLLDQFITNENPNLVSRVVFTNETPVDGFDNYFNTKVIQSPTPSYQFQVFNKYNQQSGGTKGANGFNLLASNLKSYKNDQSKGIDIPNKFSSDSGGKLLLKASDMFDTFDPSFSAAFIQGYLALQKKSKGADSKEVDSLIKDKSIIENFFVDNNTQAAAAARAASSSSEGTIQLKTASDGGGTTQSTVHKTDLVKIFGDKDVFAGEYKQQIGNTNANQTGGGGSGGGGGTSTGSSTGSSTETTTGNSSKAVVDLIEVKKDSSSQPDYILSRGKDGIHLMAVDGGSHYLTESGRDVAKQKKFLLFRALQTKYGLVDTDTTYDFKLFDEVKKYFDTNRILFLFEALLDLSSDTNNKDNFLSYPQFKKFADSIKSIEKDLKELVQAHYKQAVFNETAVAENKVTLKLAERNQPFIDNERNNQIEQNGLAAKLPYEQDAKTGHYNDLGNYYKDIIDNVDKKGTSTVKTTSSNTGQTKNFSEEVVSKLKDNKKKVEEAAKKHVEALKVFTIPSPLYSQVILVQTKLSFTPESTSLGLNLALNNYLTSTELQNSIKLSYFQEDEAFKKIIDITNLTFSQQSGGTGGTNGNNNLTADNWKIFKETYLLDLFESQAQKSIFGHVGSSDKNSSTKTGIEGVLDTLYSSLNLEERLDSDDVIDYLSYLYTAHWLLKDNLKNYKQSLQSKLSRTSNAFLVWSVDSEKNKNDSQSTLSSTASSTSNTGLIQLRSVVSLAQNQAAGQGGDNNSDITQTEVKNPNFVFGSSVYDWTNSKTPEVNRAADDTSSFFYTKSSSSSTGAAQSSATVLRSLNQASGMTTKTAKNRYGFRGIVTSSTSGSLPEAVSRRLFKQFVNQTEKGVKVGGQMLITTAKSGKATLVLKQQADDAESTTNNAYKGALFSFGSMDNLKNIINGIQTQTEFDALYNHLTSDLNIDVTGVDKNKTLTEQKTSLTSFVDSNFKQSTQSAQRGDTSARSARSATVQIKKTQEDNQNTNYKDVFSRFDGYIGDNKVEEKNYTSYQFLSDGGKYHATFVKQVNLDDVEKIGTDSLKQEDSSKDKRLNLSLEEFLAAIALEALDPNNQTQAINALISGNKKGLVKVGDFRIFSSISAQWVRRF
stoichiometry N: 3 and 2
